# Laboratory results: patent publication US20180155451A1 (published 2018)
# T1: FcγRIIb (human, UniProt P31994 43-217)
# T1 construct: extracellular domain; also called 2b; FcgRIIb
# T1 sequence (looked up): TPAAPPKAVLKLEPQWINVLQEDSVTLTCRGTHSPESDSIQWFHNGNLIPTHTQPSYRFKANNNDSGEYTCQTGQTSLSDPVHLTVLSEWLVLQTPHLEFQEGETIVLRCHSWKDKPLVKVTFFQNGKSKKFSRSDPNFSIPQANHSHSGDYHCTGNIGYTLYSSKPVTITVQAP
# T2: FcγRIIb extracellular domain with C-terminal His tag (human, UniProt P31994 43-217)
# T2 construct: extracellular domain; also called 2b; FcgRIIb; not shown: His tag at the C terminus
# T2 sequence (looked up): T1 sequence (looked up)
# B1: GpH7-A5/GpH7-B3 variant S239_10E/GpL16-k0 (antibody, human IgG1, kappa)
# heavy 1: not shown
# heavy 2: not shown
# light: DIVMTQSPLSLPVTPGEPASISCQASESLVHSNRNTYLHWYLQKPGQSPQLLIYKVSNRFSGVPDRFSGSGSGTDFTLKISRVEAEDVGVYYCSQNTHVPPTFGQGTKVEIERTVAAPSVFIFPPSDEQLKSGTASVVCLLNNFYPREAKVQWKVDNALQSGNSQESVTEQDSKDSTYSLSSTLTLSKADYEKHKVYACEVTHQGLSSPVTKSFNRGEC
# notes: also called He Ab S239_10E
# B2: GpH7-A5/GpH7-B3 variant P331_06M/GpL16-k0 (antibody, human IgG1, kappa)
# heavy 1: not shown
# heavy 2: not shown
# light: B1 light
# notes: also called He Ab P331_06M
# B3: GpH7-A5/GpH7-B3 variant T335_10E/GpL16-k0 (antibody, human IgG1, kappa)
# heavy 1: not shown
# heavy 2: not shown
# light: B1 light
# notes: also called He Ab T335_10E
# B4: GpH7-A5/GpH7-B3 variant S267_01G/GpL16-k0 (antibody, human IgG1, kappa)
# heavy 1: not shown
# heavy 2: not shown
# light: B1 light
# notes: also called He Ab S267_01G
# B5: GpH7-A5/GpH7-B3 variant T335_19Q/GpL16-k0 (antibody, human IgG1, kappa)
# heavy 1: not shown
# heavy 2: not shown
# light: B1 light
# notes: also called He Ab T335_19Q
# B6: GpH7-A5/GpH7-B3 variant P271_10E/GpL16-k0 (antibody, human IgG1, kappa)
# heavy 1: not shown
# heavy 2: not shown
# light: B1 light
# notes: also called He Ab P271_10E
# B7: GpH7-A5/GpH7-B3 variant T335_16H/GpL16-k0 (antibody, human IgG1, kappa)
# heavy 1: not shown
# heavy 2: not shown
# light: B1 light
# notes: also called He Ab T335_16H
# B8: GpH7-A5/GpH7-B3 variant S337_15Y/GpL16-k0 (antibody, human IgG1, kappa)
# heavy 1: not shown
# heavy 2: not shown
# light: B1 light
# notes: also called He Ab S337_15Y
# B9: GpH7-A5/GpH7-B3 variant P331_07I/GpL16-k0 (antibody, human IgG1, kappa)
# heavy 1: not shown
# heavy 2: not shown
# light: B1 light
# notes: also called He Ab P331_07I
# B10: GpH7-A5/GpH7-B3 variant V266_01G/GpL16-k0 (antibody, human IgG1, kappa)
# heavy 1: not shown
# heavy 2: not shown
# light: B1 light
# notes: He Ab: mutation in the GpH7-B3 H chain only; also called He Ab
# B11: GpH7-A5/GpH7-B3 variant D265_10E/GpL16-k0 (antibody, human IgG1, kappa)
# heavy 1: not shown
# heavy 2: not shown
# light: B1 light
# notes: as for B10
# B12: GpH7-A5/GpH7-B3 variant D265_06M/GpL16-k0 (antibody, human IgG1, kappa)
# heavy 1: not shown
# heavy 2: not shown
# light: B1 light
# notes: as for B10
# B13: GpH7-A5/GpH7-B3 variant A327_07I/GpL16-k0 (antibody, human IgG1, kappa)
# heavy 1: not shown
# heavy 2: not shown
# light: B1 light
# notes: as for B10
# B14: GpH7-A5/GpH7-B3 variant A327_09D/GpL16-k0 (antibody, human IgG1, kappa)
# heavy 1: not shown
# heavy 2: not shown
# light: B1 light
# notes: as for B10
# B15: GpH7-A5/GpH7-B3 variant D265_08L/GpL16-k0 (antibody, human IgG1, kappa)
# heavy 1: not shown
# heavy 2: not shown
# light: B1 light
# notes: as for B10
# B16: GpH7-A5/GpH7-B3 variant V266_20W/GpL16-k0 (antibody, human IgG1, kappa)
# heavy 1: not shown
# heavy 2: not shown
# light: B1 light
# notes: as for B10
# B17: GpH7-A5/GpH7-B3 variant A327_18N/GpL16-k0 (antibody, human IgG1, kappa)
# heavy 1: not shown
# heavy 2: not shown
# light: B1 light
# notes: as for B10
# B18: GpH7-A5/GpH7-B3 variant A327_10E/GpL16-k0 (antibody, human IgG1, kappa)
# heavy 1: not shown
# heavy 2: not shown
# light: B1 light
# notes: as for B10
# B19: GpH7-A5/GpH7-B3 variant D265_11K/GpL16-k0 (antibody, human IgG1, kappa)
# heavy 1: not shown
# heavy 2: not shown
# light: B1 light
# notes: as for B10
# B20: GpH7-A5/GpH7-B3 variant D265_04F/GpL16-k0 (antibody, human IgG1, kappa)
# heavy 1: not shown
# heavy 2: not shown
# light: B1 light
# notes: as for B10
# B21: GpH7-A5/GpH7-B3 variant D265_02A/GpL16-k0 (antibody, human IgG1, kappa)
# heavy 1: not shown
# heavy 2: not shown
# light: B1 light
# notes: as for B10
# B22: GpH7-A5/GpH7-B3 variant D265_12R/GpL16-k0 (antibody, human IgG1, kappa)
# heavy 1: not shown
# heavy 2: not shown
# light: B1 light
# notes: as for B10
# B23: GpH7-A5/GpH7-B3 variant D265_07I/GpL16-k0 (antibody, human IgG1, kappa)
# heavy 1: not shown
# heavy 2: not shown
# light: B1 light
# notes: as for B10
# B24: GpH7-A5/GpH7-B3 variant D265_03V/GpL16-k0 (antibody, human IgG1, kappa)
# heavy 1: not shown
# heavy 2: not shown
# light: B1 light
# notes: as for B10
# B25: GpH7-A5/GpH7-B3 variant D265_19Q/GpL16-k0 (antibody, human IgG1, kappa)
# heavy 1: not shown
# heavy 2: not shown
# light: B1 light
# notes: as for B10
# B26: GpH7-A5/GpH7-B3 variant A330_01G/GpL16-k0 (antibody, human IgG1, kappa)
# heavy 1: not shown
# heavy 2: not shown
# light: B1 light
# notes: as for B10
# Molecular target: T1, FcγRIIb
# Test: SPR (Biacore), binding relative to GpH7-A5/GpH7-B3/GpL16-k0 = 100
row,Binder,He/Con_2b
1,B1,181 % of control
2,B2,102 % of control
3,B3,108 % of control
4,B4,105 % of control
5,B5,100 % of control
6,B6,109 % of control
7,B7,102 % of control
8,B8,100 % of control
9,B9,114 % of control

# Molecular target: T2, FcγRIIb extracellular domain with …
# Test: SPR (Biacore), relative binding, GpH7-A5/GpH7-B3/GpL16-k0 = 100
# Experimental: (§1) Analysis of interaction between objective antibody and the FcγR was carried out using Biacore T100 (GE Healthcare). HBS-EP+ (GE Healthcare) was used as the running buffer, and the measurement temperature was set to 25° C. Chips produced by immobilizing the antigen peptide by the amine coupling method to a Series S Sencor Chip CM5 (GE Healthcare), or alternatively, chips produced by allowing preliminarily biotinylated antigen peptides to interact with and immobilize onto a Series S Sensor Chip SA (certified) (GE Healthcare) were used. Antibodies of interest were captured onto an antigen peptide-immobilized chip, and allowed to interact to each FcγR diluted with running buffer. To regenerate and repeatedly use the chip, the antibodies captured on the chip were washed off by reacting 10 mM glycine-HCl, pH 1.5.
# (§2) The FcγR-binding activity of each antibody was assessed primarily using as an indicator the FcγR-binding activity and dissociation constant for FcγR.
row,Binder,He/Con_2b
1,B10,51.5 % of control
2,B11,38.2 % of control
3,B12,10 % of control
4,B13,127 % of control
5,B14,172 % of control
6,B15,4.6 % of control
7,B16,71.9 % of control
8,B17,113 % of control
9,B18,140 % of control
10,B19,14.9 % of control
11,B20,3.2 % of control
12,B21,19.9 % of control
13,B22,15 % of control
14,B23,1.3 % of control
15,B24,3.2 % of control
16,B25,33.4 % of control
17,B26,104 % of control

# Molecular target: T3, FcγRIIIa extracellular domain with C-terminal His tag (human, UniProt P08637 17-208)
# T3 construct: extracellular domain; also called 3a; FcgRIIIa; not shown: His tag at the C terminus
# Test: as above
# Experimental: as §1, §2
# T3 sequence (P08637 17-208): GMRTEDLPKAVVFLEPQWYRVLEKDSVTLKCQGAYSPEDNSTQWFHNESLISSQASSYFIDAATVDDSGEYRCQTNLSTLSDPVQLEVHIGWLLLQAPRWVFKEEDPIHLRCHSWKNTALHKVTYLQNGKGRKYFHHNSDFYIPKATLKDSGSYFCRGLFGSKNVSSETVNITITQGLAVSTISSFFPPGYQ
row,Binder,He/Con_3a
1,B10,24 % of control
2,B11,20.1 % of control
3,B12,2.6 % of control
4,B13,42.4 % of control
5,B14,83.7 % of control
6,B15,0 % of control
7,B17,61.1 % of control
8,B18,68.6 % of control
9,B19,2.5 % of control
10,B20,0 % of control
11,B22,3.2 % of control
12,B23,-0.8 % of control
13,B24,0.6 % of control
14,B26,89.1 % of control
